Data: article PMC3791464 (eLife, 2013)

Key:
[1] = biological target: Drosophila ORC1–5 (ORC lacking Orc6), purified, 6×His-Orc1 and MBP–Orc4 (Drosophila melanogaster) (UniProt O16810); experiment: fluorescence polarisation; fluorescence anisotropy, apparent Kd; 30 nM Orc6 N-terminally labelled with Alexa Fluor 488, ORC1–5 in twofold dilutions from 1 µM to 122 pM; 50 mM Tris HCl pH 7.8, 300 mM KCl, 5% glycerol, 1 mM DTT, 0.1 mg/ml BSA; 1 hr on ice; single-site fit with ligand depletion
[2] = biological target: T1, Drosophila Orc1 in untagged recombinant ORC (Drosophila melanogaster, UniProt O16810 1-924); experiment: SEC; analytical gel filtration of purified, co-expressed untagged Drosophila ORC on a Superose 6 column; elutes as a hexamer of ~390 kDa; conditions: both partners purified
T1 construct: Drosophila Orc1; source: High5 cells co-infected with six baculoviruses, co-purified (Ni, amylose, TEV, gel filtration); not shown: 6×His, N-terminal, cleaved
T1 sequence (looked up): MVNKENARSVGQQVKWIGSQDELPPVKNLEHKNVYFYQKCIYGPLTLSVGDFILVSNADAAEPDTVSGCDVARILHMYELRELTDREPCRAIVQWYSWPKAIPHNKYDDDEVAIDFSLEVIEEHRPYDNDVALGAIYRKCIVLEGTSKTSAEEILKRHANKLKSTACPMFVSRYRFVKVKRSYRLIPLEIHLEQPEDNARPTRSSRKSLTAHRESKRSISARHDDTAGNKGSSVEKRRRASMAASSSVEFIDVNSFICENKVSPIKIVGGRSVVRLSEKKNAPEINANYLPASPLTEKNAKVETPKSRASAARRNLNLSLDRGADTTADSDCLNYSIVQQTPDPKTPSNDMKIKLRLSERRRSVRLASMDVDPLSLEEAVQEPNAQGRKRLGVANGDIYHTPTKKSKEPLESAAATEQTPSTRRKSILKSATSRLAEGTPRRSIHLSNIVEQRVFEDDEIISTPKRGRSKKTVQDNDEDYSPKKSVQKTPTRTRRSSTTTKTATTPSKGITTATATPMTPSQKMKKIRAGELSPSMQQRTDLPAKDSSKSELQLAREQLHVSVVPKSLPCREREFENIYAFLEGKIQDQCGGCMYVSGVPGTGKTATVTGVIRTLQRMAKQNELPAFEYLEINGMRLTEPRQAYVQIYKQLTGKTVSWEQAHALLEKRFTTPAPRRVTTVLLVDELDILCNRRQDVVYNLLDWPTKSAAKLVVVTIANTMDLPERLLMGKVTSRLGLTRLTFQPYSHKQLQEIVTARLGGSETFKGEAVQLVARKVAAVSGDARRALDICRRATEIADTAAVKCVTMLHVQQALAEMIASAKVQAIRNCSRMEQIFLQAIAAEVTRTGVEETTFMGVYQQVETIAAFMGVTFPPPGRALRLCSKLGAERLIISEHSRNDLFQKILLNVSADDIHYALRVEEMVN

[3] = biological target: T2, Drosophila ORC1–5 (ORC lacking Orc6), purified, 6×His-Orc1 and MBP–Orc4 (Drosophila melanogaster, UniProt O16810 1-924; Q24168 1-618; Q7K2L1 1-721; Q9W102 1-459; Q24169 1-460); experiment: fluorescence polarisation; fluorescence anisotropy, apparent Kd; 30 nM Orc6 N-terminally labelled with Alexa Fluor 488, ORC1–5 in twofold dilutions from 1 µM to 122 pM; 50 mM Tris HCl pH 7.8, 300 mM KCl, 5% glycerol, 1 mM DTT, 0.1 mg/ml BSA; 1 hr on ice; single-site fit with ligand depletion; conditions: both partners purified
T2 construct: Drosophila Orc1; Drosophila Orc2, untagged; Drosophila Orc3, untagged; Drosophila Orc4; Drosophila Orc5, untagged; source: High5 cells co-infected with five baculoviruses, purified (Ni, amylose, gel filtration; TEV step omitted); not shown: 6×His, N-terminal, kept; MBP, N-terminal, kept; copies: + + + +

[4] = biological target: T3, Drosophila ORC1–5 in MBP-tagged ORC for EM (6×His-Orc1, other subunits untagged) (Drosophila melanogaster, UniProt O16810 1-924; Q24168 1-618; Q7K2L1 1-721; Q9W102 1-459; Q24169 1-460); experiment: co-purification over several chromatography steps; MBP–Orc6 187–257 co-expressed with 6×His-Orc1 and untagged Orc2–Orc5 in High5 cells; Ni affinity, amylose affinity and gel filtration, TEV step omitted; conditions: partners not purified
T3 construct: Drosophila Orc1; Drosophila Orc2, untagged; Drosophila Orc3, untagged; Drosophila Orc4, untagged; Drosophila Orc5, untagged; source: High5 cells co-infected, co-purified with MBP–Orc6 187–257 (Ni, amylose, gel filtration; TEV step omitted); not shown: 6×His, N-terminal, kept; copies: + + + +

Molecule: Drosophila Orc6-Y225S, N-terminal 6×His (from UniProt Q9Y1B2 1-257) (natural protein)
- fold reduction of affinity against wild type Orc6 [1]: > 100 fold

B1: Drosophila Orc2 in untagged recombinant ORC (natural protein, Drosophila melanogaster, UniProt Q24168 1-618, looked up)
chain: MSASNKGGYKTPRKENLMSIENLTNSEEESEDLNTAMVGNAVESQPKVTSRRSTRRPSPTKKYQAYQKESNGKGQEERIVVNYVEMSDERSSDAEDQEEEESIEESENAARPAAKDLHLIQSEYNVAGTSMFGFNTPKKRDAMALAALNATPCTPKTPKTPRLGVKTPDTKRKKSMDQPKTPAHVRTRVKKQIAKIVADSDEDFSGDESDFRPSDEESSSSSSSSDAGNSSDNDAADDEPKTPSRARRAIVVPVLPKTPSAARLRQSARAKKSNEFVPESDGYFHSHASSKILTSDHTLDRLKNPRLAADRVFSLLSEIKTSAEHEGSINAIMEEYRSYFPKWMCILNEGFNILLYGLGSKHQLLQSFHREVLHKQTVLVVNGFFPSLTIKDMLDSITSDILDAGISPANPHEAVDMIEEEFALIPETHLFLIVHNLDGAMLRNVKAQAILSRLARIPNIHLLASIDHINTPLLWDQGKLCSFNFSWWDCTTMLPYTNETAFENSLLVQNSGELALSSMRSVFSSLTTNSRGIYMLIVKYQLKNKGNATYQGMPFRDLYSSCREAFLVSSDLALRAQLTEFLDHKLVKSKRSVDGSEQLTIPIDGALLQQFLEEQEKK
notes: Drosophila Orc2, no purification tag; source: High5 cells co-infected with six baculoviruses, co-purified (Ni, amylose, TEV, gel filtration)
- binding result [2]: binds

B2: Drosophila Orc6, full-length (1–257), N-terminal 6×His (natural protein, Drosophila melanogaster, UniProt Q9Y1B2 1-257, looked up)
chain: MTTLIEQLITKMGLREEPNVLEKTTELVRLLELRSTNVPLQINEYGKIVLCADLASCMIGIAFDKEQALKLSGLRKSQYLNNKRMFEKLLDLNKLASVNDICVQLGLNEVARKAEELMTLFKGVAATEDMGTDTSHPQYATMAVFQACRLLKKKVSKSKLMPFSNLRPSQFQLLEQQWERMIAKHHKESKVPSSTDMEGKLKENQNENIKGHEAKKAHKPPPEDYEIWKARMLAKAQAKLKELEASQSHMDSQLLEA
modifications: Alexa Fluor 488 on the N-terminus (only in the fluorescence anisotropy assay)
notes: Drosophila Orc6, residues 1-257; also called wild-type Orc6; Orc6 WT; source: High5 cells (baculovirus): in lysate of co-infected cells; also purified (HisTrap, gel filtration); not shown: 6×His, N-terminal, kept
- Kd [3]: 5 ± 0.7 nM

B3: Drosophila Orc6 in untagged recombinant ORC (natural protein, Drosophila melanogaster, UniProt Q9Y1B2 1-257, looked up)
chain: B2 chain
notes: Drosophila Orc6, no purification tag; source: High5 cells co-infected with six baculoviruses, co-purified (Ni, amylose, TEV, gel filtration)
- binding result [2]: binds

B4: Drosophila Orc6 C-terminal domain (187–257), N-terminal 6×His (domain or fragment, Drosophila melanogaster, UniProt Q9Y1B2 187-257, looked up)
chain: KESKVPSSTDMEGKLKENQNENIKGHEAKKAHKPPPEDYEIWKARMLAKAQAKLKELEASQSHMDSQLLEA
modifications: Alexa Fluor 488 on the N-terminus (only in the fluorescence anisotropy assay)
notes: Drosophila Orc6, residues 187-257 (C-terminal domain); not detected in Western blots of whole-cell extract, but seen in the pull-downs; also called Orc6 187–257; Orc6 CTD; source: High5 cells (baculovirus): in lysate of co-infected cells; also purified (HisTrap, gel filtration); not shown: 6×His, N-terminal, kept
- Kd [3]: 4.8 ± 0.6 nM

B5: Drosophila MBP–Orc6 187–257 (domain or fragment, Drosophila melanogaster, UniProt Q9Y1B2 187-257, looked up)
chain: B4 chain
notes: Drosophila Orc6, residues 187-257; also called N-terminally MBP-tagged C-terminal domain of Orc6 (amino acids 187–257); MBP-fusion of the C-terminal domain of Orc6; source: High5 cells co-infected with the ORC1–5 subunits, co-purified (Ni, amylose, gel filtration); not shown: MBP, N-terminal, kept
- binding result [4]: binds

B6: Drosophila Orc5 in untagged recombinant ORC (natural protein, Drosophila melanogaster, UniProt Q24169 1-460, looked up)
chain: MEAICSSLEPLFPCREAAIETLGELIGDSSETYPSAIYLFGHSGTGKTALTRAFLKECGKRQNVRTAHLNAIECYTTKIMLEILLDSLAPDQGDALKVDNMLDFVEQLRRQAATRVEDQGFLIAVDNAERLRDMDANVLPVLLRLQELTNLNLCVILLSQLPFEKFYNKTGLSEIVCLHLAQYNKAETQRILGSDFQQVRNQLLEQFAQDKKRLEICQEAVTEDFYNNYLNLFLSVFYKACRDVPELQLTARKCLSTYLEPVLDGTVDATDISRLWRHIAGPLRSALTQIYMRIEKPAEEVEDFTAIEDQSVRKLAQSLELPYYAKFLLIAAFLASHNAAKQDKRLFVKHHGKQRKRMQTVNARAKTTEKMSTTLGPKSFSIDRLLAIFYAILEEKVGLTCNLLSQISTLVHLNLLSFVSGEQNIMEGSARLQCTIGLEFVLQIGKVVGFNVRQYLCDFM
notes: Drosophila Orc5; the methods list Orc4 twice and leave Orc5 out of the untagged subunits; source: High5 cells co-infected with six baculoviruses, co-purified (Ni, amylose, TEV, gel filtration)
- binding result [2]: binds

B7: Drosophila Orc4 in untagged recombinant ORC (natural protein, Drosophila melanogaster, UniProt Q9W102 1-459, looked up)
chain: MPEADRELVSIRRFLKERLQRDYTTLRGYAKERSNVRLLLQRTAEMGESNSLLLLGPRGSGKTTLINSVLADLLPNKSFGENTLIVHLDGNLHTDDRVALKSITVQMQLENAADGKVFGSFAENLAFLLQCLKAGGKHSKSVIFILEEFDLFCAHHNQTLLYNLFDVSQSAQAPICVLGVTCRLDVIELLEKRVKSRFSHRQVFLFPSLRRFEDYVDLCRDLLSLPTGNSLLLAAEKIYNLQNIQSGALYFSRNHFDPGEYGFSPRLRDAWNKQICKVLATQQARSTLQALHDFDISEAYLKNFLFRLVAHLRPQSPHITAEKMAAVGSQFEGDDKIELLCGLSVLELCLIIAIKHHSQIYDRDSFNFEIIYARFSKFAKVSTTMQAVERSIVLKAFEHLRIAELIMPLTGGAGGGVGKVQKEFEMHKLALTYSQIHHCMQRYQALPTEVAQWAQSSLI
notes: Drosophila Orc4; source: High5 cells co-infected with six baculoviruses, co-purified (Ni, amylose, TEV, gel filtration); not shown: MBP, N-terminal, cleaved
- binding result [2]: binds

B8: Drosophila Orc3 in untagged recombinant ORC (natural protein, Drosophila melanogaster, UniProt Q7K2L1 1-721, looked up)
chain: MDPTISVSKGCFVYKNGATRAGKKAASKRKRPAAESSSLLGKEVVQQPFYEEYRKAWNQINDHIADLQHRSYARTLEQLVDFVVGQAERDTPDEVLPTAALLTGINQPDHLSQFTALTQRLHAQRAAMVCVLQSRDCATLKAAVETLVFGLVEDNAEVEQMEDEDEDEDGAERDRKRLRRSQCTMKQLKSWYTNNFDSEQKRRQLVVILPDFECFNASVLQDLILILSAHCGSLPFVLVLGVATAMTAVHGTLPYHVSSKIRLRVFQTQAAPTGLNEVLDKVLLSPKYAFHLSGKTFKFLTHIFLYYDFSIHGFIQGFKYCLMEHFFGGNAFALCTDYSKALGRIKQLTHEDMETIRRLPSFRPYVEQINDCKRIIAVLTDDDYLKKKLPQLLRDCLLHFLLFRCSLEFLTELVGDLPRCPLGKLRRELYVNCLNRAIISTPEYKECLQMLSFLSKDEFVAKVNRALERTEQFLVEEIAPLELGEACTAVLRPKLEAIRLAVDEVVKATMATITTTSPNETRQATDHLTPVASRQELKDQLLQRSKEDKMRHQLNTPTTQFGRALQKTLQLIETQIVQDHLRALQDAPPIHELFVFSDIATVRRNIIGAPRAALHTALNNPHFYMQCKCCELQDQSLLVGTLPDLSVVYKLHLECGRMINLFDWLQAFRSVVSDSDHEEVAQEQIDPQIQARFTRAVAELQFLGYIKMSKRKTDHATRLTW
notes: Drosophila Orc3, no purification tag; source: High5 cells co-infected with six baculoviruses, co-purified (Ni, amylose, TEV, gel filtration)
- binding result [2]: binds
